From publication PMC7336386, “Methylation of MdMYB1 locus mediated by RdDM pathway regulates anthocyanin biosynthesis in apple” come the findings set out here.

B1: 2-m5 (dsDNA)
DNA 1: TGTCAGTGTTTGCTTCTGTGGATATCAGACATGCACGTCA
DNA 2: TGACGTGCATGTCTGATATCCACAGAAGCAAACACTGACA
B2: 2-m3 (m3 region … not intact) (dsDNA)
DNA 1: TGTCAGTGTTTGCTTCTGTGATGCACGTCACTGGCCTT
DNA 2: AAGGCCAGTGACGTGCATCACAGAAGCAAACACTGACA
B3: MdMYB1 probe2 (dsDNA)
DNA 1: TGTCAGTGTTTGCTTCTGTGGATATCAGACATGCACGTCACTGGCCTT
DNA 2: AAGGCCAGTGACGTGCATGTCTGATATCCACAGAAGCAAACACTGACA
B4: 2-m2 (dsDNA)
DNA 1: TGTCAGTGTTGATATCAGACATGCACGTCACTGGCCTT
DNA 2: AAGGCCAGTGACGTGCATGTCTGATATCAACACTGACA
B5: 2-m1 (probe2 without m1 region) (dsDNA)
DNA 1: TGCTTCTGTGGATATCAGACATGCACGTCACTGGCCTT
DNA 2: AAGGCCAGTGACGTGCATGTCTGATATCCACAGAAGCA
B6: 2-m4 (dsDNA)
DNA 1: TGTCAGTGTTTGCTTCTGTGGATATCAGACCTGGCCTT
DNA 2: AAGGCCAGGTCTGATATCCACAGAAGCAAACACTGACA
B7: MdGST probe (dsDNA)
DNA 1: TTTTTTATTAAATAAAAAAAGATATCATGCGACAAACATTTATTAAATTG
DNA 2: CAATTTAATAAATGTTTGTCGCATGATATCTTTTTTTATTTAATAAAAAA
B8: MdFLS probe (dsDNA)
DNA 1: GTAAAGGGAGTGTGACCATAATATCAGATACACAAACGTCCAAAGCCC
DNA 2: GGGCTTTGGACGTTTGTGTATCTGATATTATGGTCACACTCCCTTTAC

The first data set deals with T1, MdAGO4-1 (Malus domestica? (apple), UniProt A0A498JG28 46-911).
T1 sequence: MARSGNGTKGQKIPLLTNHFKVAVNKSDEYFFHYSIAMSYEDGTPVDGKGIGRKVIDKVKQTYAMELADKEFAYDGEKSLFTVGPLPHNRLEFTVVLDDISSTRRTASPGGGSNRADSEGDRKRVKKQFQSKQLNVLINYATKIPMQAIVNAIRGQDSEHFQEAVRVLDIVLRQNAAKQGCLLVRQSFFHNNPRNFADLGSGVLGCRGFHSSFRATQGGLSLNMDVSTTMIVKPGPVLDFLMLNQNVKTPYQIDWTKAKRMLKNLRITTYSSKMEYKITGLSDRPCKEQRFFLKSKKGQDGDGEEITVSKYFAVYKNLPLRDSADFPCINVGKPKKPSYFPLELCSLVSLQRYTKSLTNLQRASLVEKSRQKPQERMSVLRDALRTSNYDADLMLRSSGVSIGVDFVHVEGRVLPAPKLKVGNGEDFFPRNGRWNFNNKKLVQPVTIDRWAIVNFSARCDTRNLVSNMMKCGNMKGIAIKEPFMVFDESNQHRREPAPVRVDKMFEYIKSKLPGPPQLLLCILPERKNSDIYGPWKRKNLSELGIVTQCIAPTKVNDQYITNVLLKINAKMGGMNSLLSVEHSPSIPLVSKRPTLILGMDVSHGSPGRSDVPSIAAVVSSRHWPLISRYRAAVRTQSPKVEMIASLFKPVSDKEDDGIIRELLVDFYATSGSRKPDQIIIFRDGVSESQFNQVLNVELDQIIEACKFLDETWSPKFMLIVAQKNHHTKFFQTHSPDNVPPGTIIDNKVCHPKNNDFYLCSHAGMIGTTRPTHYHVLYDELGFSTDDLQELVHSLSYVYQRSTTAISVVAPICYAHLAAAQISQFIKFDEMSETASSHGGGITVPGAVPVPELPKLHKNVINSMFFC
The experiment in a line: EMSA; LightShift Chemiluminescent EMSA Kit (Thermo); buffer, salt, pH and temperature not stated. The conditions noted are these: protein: recombinant; tags: His (pET32a). For orientation: A gel shift assay detects complexes by their altered migration in electrophoresis.
On to B1, for which the binding result is listed as “binds”.

Regarding B2, the binding result is “no binding”.

For the molecule B3, the binding result was “binds”. The same measure, in the same setting: the entry for B4 is “binds”; for B5 it is “binds”; for B6 it is “binds”.

The data set is the same for the next values; noted with them: protein: recombinant; tags: His (pET32a); blunt.
As for B7, the binding result is given as “no binding”.

Regarding B8, the binding result is reported as “binds”.

The next data set addresses T2, MdAGO4-1 without PAZ domain (Malus domestica? (apple), UniProt A0A498JG28 46-274+435-911, internal_change).
T2 sequence: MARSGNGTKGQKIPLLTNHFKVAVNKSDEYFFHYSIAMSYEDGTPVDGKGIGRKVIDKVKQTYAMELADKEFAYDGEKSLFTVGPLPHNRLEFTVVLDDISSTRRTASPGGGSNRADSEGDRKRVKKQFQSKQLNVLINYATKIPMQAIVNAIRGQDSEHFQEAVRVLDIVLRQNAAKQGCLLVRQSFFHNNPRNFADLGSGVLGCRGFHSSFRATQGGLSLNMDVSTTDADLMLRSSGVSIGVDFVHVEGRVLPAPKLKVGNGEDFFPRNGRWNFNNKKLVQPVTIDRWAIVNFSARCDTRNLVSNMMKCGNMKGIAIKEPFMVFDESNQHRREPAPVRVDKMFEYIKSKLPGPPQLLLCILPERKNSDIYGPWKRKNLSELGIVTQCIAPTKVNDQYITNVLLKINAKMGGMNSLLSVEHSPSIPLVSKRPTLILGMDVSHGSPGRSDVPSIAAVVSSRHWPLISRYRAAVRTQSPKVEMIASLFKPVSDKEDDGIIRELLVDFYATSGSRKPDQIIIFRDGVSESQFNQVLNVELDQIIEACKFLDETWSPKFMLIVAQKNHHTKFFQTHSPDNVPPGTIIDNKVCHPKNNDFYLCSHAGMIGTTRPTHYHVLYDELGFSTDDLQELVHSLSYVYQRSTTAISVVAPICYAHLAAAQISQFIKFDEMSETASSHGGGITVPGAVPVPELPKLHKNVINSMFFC
The description is as above. Particulars: protein: recombinant.
In the case of B3, the binding result is given as “binds”.
